From patent US20220073604A1 (ARGENX BVBA, published 2022)
Where “and” joins values, the source holds several entries; their conditions need not be identical. Equal entries are not always repeated.

Tests used:
[1] = biological target: T1, bacterially produced human IL-6 (human, UniProt P05231 30-212); experiment: SPR; purified Fab over biotinylated IL-6 on streptavidin chip
T1 construct: also called bactIL-6; prokaryotic IL-6
Protocol: (§1) From the washing phase the off-rate (kd) was determined, while from the injection phase the on-rate (ka) was calculated using the concentration and off-rate as parameters.

[2] = biological target: T2, eukaryotically produced human IL-6 (human, UniProt P05231 30-212); experiment: SPR; purified Fab; IL-6 coated on CM5 chip
T2 construct: also called eukIL-6; Euk IL-6
Protocol: as §1

[3] = biological target: T1, bacterially produced human IL-6; experiment: SPR; purified Fab; IL-6 coated on CM5 chip
Protocol: as §1

[4] = biological target: T2, eukaryotically produced human IL-6; experiment: SPR; purified Fab
[5] = biological target: T1, bacterially produced human IL-6; experiment: SPR; purified Fab
[6] = biological target: T3, cynomolgus monkey IL-6 (cynomolgus monkey, UniProt P79341 28-212, limits assumed); experiment: SPR; purified Fab
T3 construct: also called HIS-cyIL-6

[7] = biological target: T2, eukaryotically produced human IL-6; experiment: SPR; periplasmic fraction
[8] = biological target: T1, bacterially produced human IL-6; experiment: SPR; periplasmic fraction
[9] = biological target: T3, cynomolgus monkey IL-6; experiment: SPR; periplasmic fraction
[10] = biological target: T1, bacterially produced human IL-6; experiment: SPR; periplasmic fraction; against parental 29B11
[11] = biological target: T3, cynomolgus monkey IL-6; experiment: SPR; periplasmic fraction; against parental 29B11
[12] = biological target: human IL-6 (as added in the B9 and 7TD1 bioassays) (human, UniProt P05231 30-212); experiment: cell-based or functional assay

Binder	Ka [1]	Kd [1]	koff [1]	kon [1]	Kd [2]	koff [2]	Kd [3]	koff [3]	Kd [4]	koff [4]	Kd [5]	koff [5]	Kd [6]	koff [6]	other results
Fab 18C9 (Fab, V domains shown, Fab) VH: EVQLVESGGGLVQPGGSLRLSCAASGFTFSRNAMSWVRQAPGKGLEWVSAINSGGGSTSYADSVKGRFTISRDNAKNTLYLQMNSLKPEDTAVYYCAKEGYTGWKDPMYDYWGQGTQVTVSS VL: LNFMLTQPSALSVTLGQTAKITCQGGSLGSRYAHWYQQKPGQAPVLVIYDDDSRPSGIPERFSGSSSGGRATLTISGAQAEDDGDYYCQSADSSGNASVFGGGTHLTVLG	4.67e+07 M⁻¹	21.4 nM	0.00119 s⁻¹	55600 M⁻¹ s⁻¹	2.4 nM	0.00021 s⁻¹	4.9 nM	0.00036 s⁻¹	–	–	–	–	–	–	–
Fab 41E10/35B1 (Fab, V domains shown, VL-shuffled Fab of 17F10) VH: EVQLQESGPGLVKPSQTLSLTCTVSGGSIATSYYAWSWIRQPPGKGLEWMGVIDYDGDTYYKPSLKSRTSISRDTSKNQFSLQLSSVTPEDTAVYYCARAGLGDSYYLGTYYAMDYWGKGTLVTVSS VL: QAVLTQPPSMSGTLGKTLTISCNGTSSDIGSGNYVSWYQQLPGTTPKLLIEGVTTRVSGIPDRFSGSKSDNTASLTISGLQSEDEATYYCASYRETNNVVFGGGTHLTVLG	–	–	–	–	–	–	–	–	0.46 nM	0.00016 s⁻¹	0.54 nM	0.00016 s⁻¹	0.34 nM	0.00012 s⁻¹	–
Fab 41B5/35C1 (Fab, V domains shown, VL-shuffled Fab of 17F10) VH: EVQLQESGPGLVKPSQTLSLTCTVSGGSIATSYYAWSWIRQPPGKGLEWMGVIDYDGDTYYKPSLKSRTSISRDTSKNQFSLQLSSVTPEDTAVYYCARAGLGDSYYLGTYYAMDYWGKGTLVTVSS VL: QSALTQPPSMSGTLGKTLTISCNGTSSDIGSGDYVSWYQQLPGTTPKLLIEGVTTRASGIPDRFSASKSDNTASLTISGLQSEDEATYYCASYRETNNVVFGGGTHLTVLS	–	–	–	–	–	–	–	–	0.41 nM and 0.92 nM	0.00012 s⁻¹ and 0.0002 s⁻¹	0.47 nM	0.00011 s⁻¹	0.28 nM and 0.72 nM	8.1e-05 s⁻¹ and 0.00017 s⁻¹	–
Fab 29B11 (Fab, V domains shown, Fab) VH: EVQLVESGGGLVQPGGSLRLSCAASGFTFSSYAMSWVRQAPGKGLEWVSRISSGGISTYYADSVKGRFTISRDNAKNTLYLQMNSLKPEDTAVYYCVRYAWGVQWAFDFWGQGTQVTVSS VL: QSVLTQPPSVSGSPGQTVTISCAGTSEDVGYGNYVSWYQQLPGMAPKLLIYDVNKRASGIADRFSGSKSGNTASLTISGLQSEDEADYYCASYRRTIDNIFGGGTHLTVLG	4.36e+07 M⁻¹	22.9 nM	0.00298 s⁻¹	130000 M⁻¹ s⁻¹	0.51 nM	0.0001 s⁻¹	0.93 nM	0.00022 s⁻¹	–	–	–	–	–	–	Ka [7]: 1.83e+09 M⁻¹; Kd [7]: 0.546 nM; koff [7]: 0.000102 s⁻¹; kon [7]: 187000 M⁻¹ s⁻¹; Ka [8]: 1.91e+09 M⁻¹; Kd [8]: 0.524 nM; koff [8]: 0.000131 s⁻¹; kon [8]: 251000 M⁻¹ s⁻¹; Ka [9]: 1.51e+08 M⁻¹; Kd [9]: 6.61 nM; koff [9]: 0.000746 s⁻¹; kon [9]: 113000 M⁻¹ s⁻¹
Fab 48C10 (Fab, V domains shown, VL-shuffled Fab of 29B11, periplasmic fraction) VH: EVQLVESGGGLVQPGGSLRLSCAASGFTFSSYAMSWVRQAPGKGLEWVSRISSGGISTYYADSVKGRFTISRDNAKNTLYLQMNSLKPEDTAVYYCVRYAWGVQWAFDFWGQGTQVTVSS VL: AQSVLTQPPSVSGSPGQTVTISCAGTSEDVGYGNYVSWYQQLPGMAPKLLIYDVNKRASGIADRFSGSKSGNTASLTISGLQSEDEADYYCASYRRTIDNIFGGGTHLTVLG	–	–	–	–	–	–	–	–	–	–	–	–	–	–	Ka [8]: 1.43e+09 M⁻¹; Kd [8]: 0.701 nM; koff [8]: 0.000184 s⁻¹; kon [8]: 262000 M⁻¹ s⁻¹; Ka [9]: 4.1e+08 M⁻¹; Kd [9]: 2.44 nM; koff [9]: 0.00044 s⁻¹; kon [9]: 180000 M⁻¹ s⁻¹; fold improvement KD [10]: 0.75 fold; fold improvement ka [10]: 1.04 fold; fold improvement kd [10]: 0.71 fold; fold improvement KD [11]: 2.71 fold; fold improvement ka [11]: 1.59 fold; fold improvement kd [11]: 1.7 fold
Fab 24E9 (Fab, V domains shown, Fab) VH: EVQLVESGGGLVQPGGSLRLSCAASGFTFSTYAMSWVRQAPGKGPEWVSRISSGGGSTNYADSVKGRFTISRDNAKKTLYLQMKSLKPEDTAVYYCANRAGWGMGDYWGQGTQVTVSS VL: QTVVTQEPSLSVSPGGTVTLTCGLSSGSVTASNYPGWFQQTPGQAPRALIYSTNDRHSGVPSRFSGSISGNKAALTITGAQPEDEADYYCALDIGDITEFGGGTHLTVLG	8.38e+08 M⁻¹	1.19 nM	0.000139 s⁻¹	117000 M⁻¹ s⁻¹	0.71 nM	0.00024 s⁻¹	0.93 nM	0.00029 s⁻¹	–	–	–	–	–	–	–
133A9 (germlined variant of 68F2) (antibody, V domains shown) VH: EVQLQESGPGLVKPSQTLSLTCTVSGGSITTRYYAWSWIRQPPGKGLEWIGVIDYEGDTYYSPSLKSRVTISVDTSKNQFSLKLSSVTAEDTAVYYCARDPDVVTGFHYDYWGQGTMVTVSS VL: QSALTQPPLVSGSPGQTVTISCAGANNDIGTYAYVSWYQQPPGTAPKLMIYKVTTRASGIPDRFSGSISGNTASLTISGLQSEDEADYYCASYRNFNNAVFGTGTKLTVL	–	–	–	–	–	–	–	–	–	–	–	–	–	–	IC50, 7TD1 cells [12]: 0.00018 nM; Potency relative to 68F2, 7TD1 cells [12]: 3.66
Fab 20A4 (Fab, V domains shown, Fab) VH: EVQLQESGPGLVKPSQTLSLTCTVSGGSITTRYYAWSWIRQPPGKGLEWMGVIDYDGDTYYSPSLKSRTSISWDTSKNQFSLQLSSVTPEDTAVYYCARDPDVVTGFHYDYWGQGTQVTVSS VL: LNFMLTQPPSVSGTLGKTVTISCAGTSSDIGGYNYVSWYQQLPGTAPKLLIHRVSTRASGIPDRFSGSKSGNTASLTISGLRSEDEANYYCASYRNFNNAVFGGGTQLTVLG	1.72e+08 M⁻¹	5.82 nM	0.00168 s⁻¹	288000 M⁻¹ s⁻¹	0.81 nM	0.0003 s⁻¹	2 nM	0.00062 s⁻¹	0.81 nM	0.0003 s⁻¹	2 nM	0.00062 s⁻¹	1.7 nM	0.00075 s⁻¹	–

Now from value to binder, other results behind:

Ka [1]	Kd [1]	koff [1]	kon [1]	Kd [2]	koff [2]	Kd [3]	koff [3]	Kd [4]	koff [4]	Kd [5]	koff [5]	Kd [6]	koff [6]	Binder	other results
5.7e+07 M⁻¹	17.5 nM	0.00185 s⁻¹	105000 M⁻¹ s⁻¹	7.7 nM	0.001 s⁻¹	9.1 nM	0.0011 s⁻¹	7.7 nM and 5.2 nM	0.001 s⁻¹ and 0.00082 s⁻¹	9.1 nM	0.0011 s⁻¹	5.3 nM and 4.9 nM	0.00063 s⁻¹ and 0.00069 s⁻¹	Fab 18C7 (Fab, V domains shown, Fab; also called 18C7 (090-423)) VH: EVQLVESGPGLVKPSQTLSLTCTVSGGSITASFDAWSWIRQPPGKGLEWMGVIAYDGSTYYSPSLKSRTSISRDTSKNQFSLQLSSVTPEDTAVYYCARKSSWLIGYGMDYWGKGTLVTVSS VL: QAGLTQPSALSVTLGQTAKITCQGGSLGSSYAHWYQQKPGQAPVLVIYDDDSRPSGIPERFSGSSSGGRATLTISGAQAEDEGDYYCQSADSSGNAAVFGGGTHLTVLG	–
7.05e+07 M⁻¹	14.2 nM	0.000784 s⁻¹	55200 M⁻¹ s⁻¹	–	–	–	–	2.9 nM	0.00076 s⁻¹	–	–	3.4 nM	0.00085 s⁻¹	Fab 18C11 (Fab, V domains shown, Fab) VH: EVQLVESGGGLVQPGGSLRLSCAASGFTFSSYAMSWVRQAPGKGLEWVSAINSGGGSTSYADSVKGRFTISRDNAKNTLYLQMNSLKPEDTAVYYCAKEGDTGWKDPMYDYWGQGTQVTVSS VL: QSVVTQPSALSVTLGQTAKITCQGGGLRSSYAHWYQQKPGQAPVLVIYDDDSRPSGIPERFSGSSSGGRATLTISGAQAEDEGDYYCQSADSSGNAAVFGGGTHLTVLG	–
–	–	–	–	–	–	–	–	0.34 nM	0.00011 s⁻¹	0.75 nM	0.00015 s⁻¹	0.69 nM	0.00015 s⁻¹	Fab 42H1/36A1 (Fab, V domains shown, VL-shuffled Fab of 18C11) VH: EVQLVESGGGLVQPGGSLRLSCAASGFTFSSYAMSWVRQAPGKGLEWVSAINSGGGSTSYADSVKGRFTISRDNAKNTLYLQMNSLKPEDTAVYYCAKEGDTGWKDPMYDYWGQGTQVTVSS VL: AQSALTQPSALSVTLGQTAKITCQGGSLGTRYAHWYQQKPGQAPVLVIYDDDSRPSGIPERFSGSSSGGRATLTISGAQAEDEGDYYCQSADSSGNASVFGGGTHLTVLG	–
1.51e+09 M⁻¹	0.661 nM	8.77e-05 s⁻¹	133000 M⁻¹ s⁻¹	1.7 nM	0.0003 s⁻¹	2.6 nM	0.00037 s⁻¹	–	–	–	–	–	–	Fab 24C9 (Fab, V domains shown, Fab) VH: QVQLVESGGGLVQPGGSLRLSCAASGFTFSSYRMYWVRQPPGKGLEWVSAISAGGGSTYYGDSVKGRFTISRDNAKNTVYLQMNSLKPEDTALYYCKKSTWADGESDYWGQGTQVTVSS VL: QTVVTQEPSLSVSPGGTVTLTCGLSSGSVTASNYPGWFQQTPGQAPRALIYSTNDRHSGVPSRFSGSISGNKAALTITGAQPEDEADYYCALDIGDITEFGGGTHLTVLG	–
